Data from article PMC9638024, “Functional rewiring of G protein-coupled receptor signaling in human labor” (Cell Reports, 2022).

Target: FLAG-tagged EP2, P43116
Assay: PD-PALM (dual-color photoactivated localization microscopy with photoactivatable dyes); HEK 293 cells stably expressing FLAG-EP2 and transfected with HA-OTR; live labelling with anti-FLAG-CAGE 500 and anti-HA-CAGE 552, fixed, TIRF plane, 25 C; search radius 50 nm, Getis Franklin …
Settings: other: PD-PALM (dual-color photoactivated localization microscopy with photoactivatable dyes)

FLAG-tagged EP2, P43116, sequence (P43116 whole entry): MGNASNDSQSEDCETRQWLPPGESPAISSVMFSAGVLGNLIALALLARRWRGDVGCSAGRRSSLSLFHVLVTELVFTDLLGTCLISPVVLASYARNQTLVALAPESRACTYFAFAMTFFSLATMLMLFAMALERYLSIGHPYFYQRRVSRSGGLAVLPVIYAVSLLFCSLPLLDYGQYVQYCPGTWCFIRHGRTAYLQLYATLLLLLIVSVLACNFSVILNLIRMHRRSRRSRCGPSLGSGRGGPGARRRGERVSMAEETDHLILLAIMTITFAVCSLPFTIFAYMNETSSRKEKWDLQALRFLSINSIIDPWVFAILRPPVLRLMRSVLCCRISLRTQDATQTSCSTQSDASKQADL

B1: hemagglutinin (HA)-tagged OTR (protein)
chain: MEGALAANWSAEAANASAAPPGAEGNRTAGPPRRNEALARVEVAVLCLILLLALSGNACVLLALRTTRQKHSRLFFFMKHLSIADLVVAVFQVLPQLLWDITFRFYGPDLLCRLVKYLQVVGMFASTYLLLLMSLDRCLAICQPLRSLRRRTDRLAVLATWLGCLVASAPQVHIFSLREVADGVFDCWAVFIQPWGPKAYITWITLAVYIVPVIVLAACYGLISFKIWQNLRLKTAAAAAAEAPEGAAAGDGGRVALARVSSVKLISKAKIRTVKMTFIIVLAFIVCWTPFFFVQMWSVWDANAPKEASAFIIVMLLASLNSCCNPWIYMLFTGHLFHELVQRFLCCSASYLKGRRLGETSASKKSNSSSFVLSHRSSSQRSCSQPSTA
percent of the heteromers that are heterodimers (basal): heterodimers (∼55% of the heteromers)
